Entries after “also recorded” stand apart in the source; their conditions may differ. Where two headings read alike, the source gives them in different places.
Key:
[1] = tested on: Mdk-/- mice after 5/6 nephrectomy; experiment: rh-MK and -PTN treatment model (osmotic pump), blood pressure by tail-cuff; format: in vivo; details: 1.6 mg/ml, 100 μl by osmotic pump over 14 days
Experimental: (§1) rh-MK and -PTN treatment model. In the pump study, MK protein in saline (1.6 mg/ml) (n=5), PTN in saline (1.6 mg/ml; n=5), or saline alone (n=5) was infused using an osmotic pump (ALZA Corp.) into Mdk^−/− mice after 5/6 nephrectomy. The pumps continuously infused a total of 100 μl over 14 days. The pumps were implanted under the dorsal skin the next day after 5/6 nephrectomy. Blood pressure was measured by the indirect tail-cuff technique at 0 and 2 weeks after 5/6 nephrectomy. Mice were sacrificed at 2 weeks after 5/6 nephrectomy, and blood and tissue samples were collected.
Blood pressure monitoring. Blood pressure was measured in restrained, conscious mice by the indirect tail-cuff technique under unstressed conditions (BP-98A; Softron) at 0, 2, 4, 6, and 8 weeks after 5/6 nephrectomy (J. Lab. Clin. Med. 78:957-962). Before measurement, the mice were warmed with a heating pad for 5 minutes. A total of 7-10 readings were taken for each mouse, at 1- to 2-minute intervals.

[2] = tested on: ACE; experiment: rh-MK and -PTN treatment model, ACE expression in the lung by Western blotting; format: in vivo; details: Mdk-/- mice after 5/6 nephrectomy, 1.6 mg/ml, 100 μl by osmotic pump over 14 days
Experimental: as §1
Western blot analysis. Mouse kidney, lung, brain, heart, and liver tissues were snap-frozen in liquid nitrogen for protein isolation. Western blot analysis was performed as described previously (Br. J. Cancer. 75:354-359). The blots were subsequently incubated with goat anti-human MK antibody (dilution, 1:1,000), monoclonal anti-β-actin antibody (dilution, 1:1,000; Sigma-Aldrich), mouse anti-ACE monoclonal antibody (dilution, 1:1,000; Chemicon International, Millipore), or rabbit anti-phospho-PKC antibody (dilution, 1:1,000; Cell Signaling Technology), followed by incubation with peroxidase-conjugated goat IgG, mouse IgG, or rabbit IgG (dilution, 1:5,000; Jackson Immunoresearch Laboratories Inc.). […] The density of each band was measured using the public domain NIH Image program (http://rsb.info.nih.gov/nih-image/).

[3] = tested on: ACE; experiment: ACE expression in HMVEC-L by Western blotting; format: cell-based, human; details: exogenous MK protein 100 ng/ml plus heparin 20 μg/ml
Source text: Histology and immunohistochemistry. The removed kidneys and lungs were fixed in 10% buffered formalin, embedded in paraffin, and then cut into 4-10.1 μm sections. The sections were stained with H&E, PAS, and Masson's trichrome. Another tissue sample was embedded in OCT compound (Sakura Finetek) and frozen in liquid nitrogen for immunostaining. Sections were cut to a thickness of 3 μm with a cryostat and fixed in acetone. High-power fields were used to examine the sections for evidence of focal sclerosis (J. Hypertens. 13:1785-1790, J. Lab. Clin. Med. 115:165-173). Glomerular sclerosis was assessed by semiquantitative score (grades 0 to +4) using the method of Raij et al. (Kidney Int. 26:137-143): grade 0, no sclerosis of glomeruli; grade 1, sclerosis of up to 25% of glomerulus; grade 2, sclerosis of 25%-50% of glomerulus; grade 3, sclerosis of 50%-75% of glomerulus; grade 4, sclerosis of 75%-100% of glomerulus. At least 50 glomeruli were evaluated under ×400 magnification and results averaged for each kidney (Mdk^+/+: 2 weeks, n=5; 4 weeks, n=4; 8 weeks, n=4; Mdk^−/−: 2 weeks, n=4; 4 weeks, n=3; 8 weeks, n=3). Immunostaining for ACE and MK was performed on buffered formalin-fixed tissues. Sections were deparaffinized, rehydrated, incubated in 3% hydrogen peroxide in methanol to block endogenous peroxidase, and washed in 10% normal goat serum (Dako) in PBS to block nonspecific binding. Subsequently, sections were incubated with mouse anti-ACE monoclonal antibody (dilution, 1:400; Chemicon International, Millipore) or anti-MK monoclonal antibody (dilution, 1:100) overnight at 4° C. as described previously (22), followed by a conjugate of polyclonal goat anti-mouse IgG antibody and HRP-labeled polymer (Histofine Simple Stain; Nichirei) for 1 hour at room temperature as a secondary antibody. The staining was visualized with 3-3′ diaminobenzidine (Nichirei) to produce a brown color. The sections were covered with 90% glycerol containing p-phenylenediamine and were examined by electron microscopy (H-7100; Hitachi). For double immunofluorescence staining of MK and thrombomodulin as a marker of the vascular endothelium, the cryosections of lungs were first incubated with chicken anti-human MK (dilution, 1:200) and then with rabbit anti-rat thrombomodulin (dilution, 1:1,000) (J. Immunol. 150:5633-5646), followed by incubation with FITC-labeled rabbit anti-chicken IgG (dilution, 1:160) and rhodamine-labeled goat anti-rabbit IgG (dilution, 1:320) as secondary antibodies. […] The lung and kidney section from each mouse was viewed under ×400 magnification, and then macrophages or neutrophils were counted from 10 fields and averaged. […]

[4] = tested on: HMVEC-L; experiment: Ang II concentration in HMVEC-L (conversion from Ang I to Ang II); format: cell-based, human; details: HMVEC-L treated 36 hours with MK 100 ng/ml plus heparin 20 μg/ml or heparin alone, then Ang I added
Experimental: Ang II concentration in HMVEC-L. After reaching confluence, HMVEC-L were washed with PBS and cultured for 24 hours in essential basal medium containing 0.5% FBS. These cells were exposed to 100 ng/ml rh-MK plus 20 μg/ml heparin or 20 μg/ml heparin alone in essential basal medium containing 0.5% FBS for 36 hours. After stimulation, HMVEC-L were washed with PBS and exposed to 500 pM Ang I (Sigma-Aldrich) for 10 and 25 minutes. Supernatants were collected into chilled tubes, and then the Ang II concentration was measured as previously described (Hypertension. 39:129-134).

[5] = tested on: PKC; experiment: Phospho-PKC expression in HMVEC-L by Western blotting; format: cell-based, human; details: exogenous MK 100 ng/ml plus heparin 20 μg/ml
Source text: Histology and immunohistochemistry. The removed kidneys and lungs were fixed in 10% buffered formalin, embedded in paraffin, and then cut into 4-10.1 μm sections. The sections were stained with H&E, PAS, and Masson's trichrome. Another tissue sample was embedded in OCT compound (Sakura Finetek) and frozen in liquid nitrogen for immunostaining. Sections were cut to a thickness of 3 μm with a cryostat and fixed in acetone. High-power fields were used to examine the sections for evidence of focal sclerosis (J. Hypertens. 13:1785-1790, J. Lab. Clin. Med. 115:165-173). Glomerular sclerosis was assessed by semiquantitative score (grades 0 to +4) using the method of Raij et al. (Kidney Int. 26:137-143): grade 0, no sclerosis of glomeruli; grade 1, sclerosis of up to 25% of glomerulus; grade 2, sclerosis of 25%-50% of glomerulus; grade 3, sclerosis of 50%-75% of glomerulus; grade 4, sclerosis of 75%-100% of glomerulus. At least 50 glomeruli were evaluated under ×400 magnification and results averaged for each kidney (Mdk^+/+: 2 weeks, n=5; 4 weeks, n=4; 8 weeks, n=4; Mdk^−/−: 2 weeks, n=4; 4 weeks, n=3; 8 weeks, n=3). Immunostaining for ACE and MK was performed on buffered formalin-fixed tissues. […] The lung and kidney section from each mouse was viewed under ×400 magnification, and then macrophages or neutrophils were counted from 10 fields and averaged. […]

[6] = tested on: retinal nerve degeneration model; details: prior injection of midkine; cited from earlier work
[7] = tested on: cerebral ischemia reperfusion insult model; details: cited from earlier work
[8] = tested on: acute myocardial infarction model; details: administration of midkine; cited from earlier work
[9] = compared with mouse MK produced in L cells; cited from earlier work

B1: MK: recombinant human midkine produced in Pichia pastoris; 13 kDa heparin-binding protein (protein, UniProt P21741 21-143, looked up)
Midkine: VAKKKDKVKKGGPGSECAEWAWGPCTPSSKDCGVGFREGTCGAQTQRIRCRVPCNWKKEFGADCKYKFENWGACDGGTGTKVRQGTLKKARYNAQCQETIRVTKPCTPKTKAKAKAKKGKGKD
With B1 as the molecule, how does the “Hypertension (SBP)” value [1] read?
The value was “restore hypertension; also recorded: restored”.

What about the “ACE expression in the lung” value [2] of the same molecule?
The value was “restored”.

What about the “ACE expression in HMVEC-L” value [3] of the same molecule?
The value was “significantly enhanced; also recorded: induced”.

And the “Conversion of Ang I to Ang II” value [4]?
The value was “converted to Ang II in a time-dependent manner”.

What about the “Phosphorylation levels of PKC” value [5] of the same molecule?
Its value is “increased”.

What about the Neuronal cell loss [6] of the same molecule?
Its Neuronal cell loss is “reduced”.

And the “Loss of hippocampal neuronal cells” value ([7]; post-insult therapeutic administration)?
Its value is “ineffective”.

What about the “Loss of hippocampal neuronal cells” value ([7]; prior ventricular administration of midkine) of the same molecule?
The value was “able to remedy”.

And the “Apoptotic loss of myocardial cells” value [8]?
The value was “reduction”.

What about the Neurotrophic activity [9] of the same molecule?
Its Neurotrophic activity is “comparable”.

Source: patent US20110059102A1, “Therapeutic Method Targeting Midkine” (NATIONAL UNIVERSITY CORPORATION NAGOYA UNIVERSITY, priority 2009, published 2011)
